Assay results published in the supplement of paper PMC11316812.
± gives the standard deviation of the averaged measurements.

Columns and labels:
MCF7 = test: percentage of EdU-negative (G0-arrested) nuclei per well, 72 h; higher = more G0 arrest; conditions: reference: sequence is the full UniProt precursor, the tested protein was the secreted form or ectodomain
hTERT-HMEC = test: as above; conditions: reference: sequence is the full UniProt precursor, the tested protein was the secreted form or ectodomain
[1] = protein concentration 0.0322857 µM
[2] = protein concentration 0.0337143 µM
[3] = protein concentration 0.322857 µM
[4] = protein concentration 0.337143 µM
[5] = protein concentration 0.0257143 µM
[6] = protein concentration 0.257143 µM
[7] = protein concentration 0.0145714 µM
[8] = protein concentration 0.145714 µM
[9] = protein concentration 0.0059525 µM
[10] = protein concentration 0.059525 µM
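Also: secreted proteins added to cultured cells, EdU pulse at the end, nuclei found by Hoechst imaging, EdU status from nuclear versus surrounding ring intensity ratio, PBS as neutral control.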

MLPPMALPSVSWMLLSCLMLLSQVQGEEPQRELPSARIRCPKGSKAYGSHCYALFLSPKSWTDADLACQKRPSGNLVSVLSGAEGSFVSSLVKSIGNSYSYVWIGLHDPTQGTEPNGEGWEWSSSDVMNYFAWERNPSTISSPGHCASLSRSTAFLRWKDYNCNVRLPYVCKFTD
percentage of EdU-negative (MCF7; [1]): 24.2 ± 2.7% | percentage of EdU-negative (MCF7; [2]): 24.3 ± 1.6% | percentage of EdU-negative (MCF7; [3]): 26.7 ± 1.1% | percentage of EdU-negative (MCF7; [4]): 27.4 ± 2.9% | percentage of EdU-negative (hTERT-HMEC; [1]): 5.46 ± 0.53% | percentage of EdU-negative (hTERT-HMEC; [2]): 5.04 ± 0.18% | percentage of EdU-negative (hTERT-HMEC; [3]): 7.94 ± 0.33% | percentage of EdU-negative (hTERT-HMEC; [4]): 6.63 ± 1.3%

MAAARLCLSLLLLSTCVALLLQPLLGAQGAPLEPVYPGDNATPEQMAQYAADLRRYINMLTRPRYGKRHKEDTLAFSEWGSPHAAVPRELSPLDL
percentage of EdU-negative (MCF7; [5]): 20.5 ± 1.5% | percentage of EdU-negative (MCF7; [6]): 23.4 ± 3.6% | percentage of EdU-negative (hTERT-HMEC; [5]): 5.37 ± 1.1% | percentage of EdU-negative (hTERT-HMEC; [6]): 5.93 ± 0.18%

MNQKTILVLLILAVITIFALVCVLLVGRGGDGGEPSQLPHCPSVSPSAQPWTHPGQSQLFADLSREELTAVMRFLTQRLGPGLVDAAQARPSDNCVFSVELQLPPKAAALAHLDRGSPPPAREALAIVFFGRQPQPNVSELVVGPLPHPSYMRDVTVERHGGPLPYHRRPVLFQEYLDIDQMIFNRELPQASGLLHHCCFYKHRGRNLVTMTTAPRGLQSGDRATWFGLYYNISGAGFFLHHVGLELLVNHKALDPARWTIQKVFYQGRYYDSLAQLEAQFEAGLVNVVLIPDNGTGGSWSLKSPVPPGPAPPLQFYPQGPRFSVQGSRVASSLWTFSFGLGAFSGPRIFDVRFQGERLVYEISLQEALAIYGGNSPAAMTTRYVDGGFGMGKYTTPLTRGVDCPYLATYVDWHFLLESQAPKTIRDAFCVFEQNQGLPLRRHHSDLYSHYFGGLAETVLVVRSMSTLLNYDYVWDTVFHPSGAIEIRFYATGYISSAFLFGATGKYGNQVSEHTLGTVHTHSAHFKVDLDVAGLENWVWAEDMVFVPMAVPWSPEHQLQRLQVTRKLLEMEEQAAFLVGSATPRYLYLASNHSNKWGHPRGYRIQMLSFAGEPLPQNSSMARGFSWERYQLAVTQRKEEEPSSSSVFNQNDPWAPTVDFSDFINNETIAGKDLVAWVTAGFLHIPHAEDIPNTVTVGNGVGFFLRPYNFFDEDPSFYSADSIYFRGDQDAGACEVNPLACLPQAAACAPDLPAFSHGGFSHN
percentage of EdU-negative (MCF7; [7]): 22.8 ± 0.3% | percentage of EdU-negative (MCF7; [8]): 26.8 ± 0.78% | percentage of EdU-negative (hTERT-HMEC; [7]): 5.32 ± 0.3% | percentage of EdU-negative (hTERT-HMEC; [8]): 6.82 ± 0.15%

MGVPFFSSLRCMVDLGPCWAGGLTAEMKLLLALAGLLAILATPQPSEGAAPAVLGEVDTSLVLSSMEEAKQLVDKAYKERRESIKQRLRSGSASPMELLSYFKQPVAATRTAVRAADYLHVALDLLERKLRSLWRRPFNVTDVLTPAQLNVLSKSSGCAYQDVGVTCPEQDKYRTITGMCNNRRSPTLGASNRAFVRWLPAEYEDGFSLPYGWTPGVKRNGFPVALARAVSNEIVRFPTDQLTPDQERSLMFMQWGQLLDHDLDFTPEPAARASFVTGVNCETSCVQQPPCFPLKIPPNDPRIKNQADCIPFFRSCPACPGSNITIRNQINALTSFVDASMVYGSEEPLARNLRNMSNQLGLLAVNQRFQDNGRALLPFDNLHDDPCLLTNRSARIPCFLAGDTRSSEMPELTSMHTLLLREHNRLATELKSLNPRWDGERLYQEARKIVGAMVQIITYRDYLPLVLGPTAMRKYLPTYRSYNDSVDPRIANVFTNAFRYGHTLIQPFMFRLDNRYQPMEPNPRVPLSRVFFASWRVVLEGGIDPILRGLMATPAKLNRQNQIAVDEIRERLFEQVMRIGLDLPALNMQRSRDHGLPGYNAWRRFCGLPQPETVGQLGTVLRNLKLARKLMEQYGTPNNIDIWMGGVSEPLKRKGRVGPLLACIIGTQFRKLRDGDRFWWENEGVFSMQQRQALAQISLPRIICDNTGITTVSKNNIFMSNSYPRDFVNCSTLPALNLASWREAS
percentage of EdU-negative (MCF7; [9]): 24.8 ± 1.3% | percentage of EdU-negative (MCF7; [10]): 26.8 ± 0.65% | percentage of EdU-negative (hTERT-HMEC; [9]): 5.02 ± 0.23% | percentage of EdU-negative (hTERT-HMEC; [10]): 4.74 ± 0.28%
